Reference: IntAct's records for PubMed 31515488

B1: Ligand-dependent corepressor (Homo sapiens), Q96JN0 (parent)
chain: MQRMIQQFAAEYTSKNSSTQDPSQPNSTKNQSLPKASPVTTSPTAATTQNPVLSKLLMADQDSPLDLTVRKSQSEPSEQDGVLDLSTKKSPCAGSTSLSHSPGCSSTQGNGRPGRPSQYRPDGLRSGDGVPPRSLQDGTREGFGHSTSLKVPLARSLQISEELLSRNQLSTAASLGPSGLQNHGQHLILSREASWAKPHYEFNLSRMKFRGNGALSNISDLPFLAENSAFPKMALQAKQDGKKDVSHSSPVDLKIPQVRGMDLSWESRTGDQYSYSSLVMGSQTESALSKKLRAILPKQSRKSMLDAGPDSWGSDAEQSTSGQPYPTSDQEGDPGSKQPRKKRGRYRQYNSEILEEAISVVMSGKMSVSKAQSIYGIPHSTLEYKVKERLGTLKNPPKKKMKLMRSEGPDVSVKIELDPQGEAAQSANESKNE
B2: Aflatoxin B1 aldehyde reductase member 2 (Homo sapiens), O43488 (parent)
chain: MLSAASRVVSRAAVHCALRSPPPEARALAMSRPPPPRVASVLGTMEMGRRMDAPASAAAVRAFLERGHTELDTAFMYSDGQSETILGGLGLGLGGGDCRVKIATKANPWDGKSLKPDSVRSQLETSLKRLQCPQVDLFYLHAPDHGTPVEETLHACQRLHQEGKFVELGLSNYASWEVAEICTLCKSNGWILPTVYQGMYNATTRQVETELFPCLRHFGLRFYAYNPLAGGLLTGKYKYEDKDGKQPVGRFFGNSWAETYRNRFWKEHHFEAIALVEKALQAAYGASAPSVTSAALRWMYHHSQLQGAHGDAVILGMSSLEQLEQNLAATEEGPLEPAVVDAFNQAWHLVAHECPNYFR
partner: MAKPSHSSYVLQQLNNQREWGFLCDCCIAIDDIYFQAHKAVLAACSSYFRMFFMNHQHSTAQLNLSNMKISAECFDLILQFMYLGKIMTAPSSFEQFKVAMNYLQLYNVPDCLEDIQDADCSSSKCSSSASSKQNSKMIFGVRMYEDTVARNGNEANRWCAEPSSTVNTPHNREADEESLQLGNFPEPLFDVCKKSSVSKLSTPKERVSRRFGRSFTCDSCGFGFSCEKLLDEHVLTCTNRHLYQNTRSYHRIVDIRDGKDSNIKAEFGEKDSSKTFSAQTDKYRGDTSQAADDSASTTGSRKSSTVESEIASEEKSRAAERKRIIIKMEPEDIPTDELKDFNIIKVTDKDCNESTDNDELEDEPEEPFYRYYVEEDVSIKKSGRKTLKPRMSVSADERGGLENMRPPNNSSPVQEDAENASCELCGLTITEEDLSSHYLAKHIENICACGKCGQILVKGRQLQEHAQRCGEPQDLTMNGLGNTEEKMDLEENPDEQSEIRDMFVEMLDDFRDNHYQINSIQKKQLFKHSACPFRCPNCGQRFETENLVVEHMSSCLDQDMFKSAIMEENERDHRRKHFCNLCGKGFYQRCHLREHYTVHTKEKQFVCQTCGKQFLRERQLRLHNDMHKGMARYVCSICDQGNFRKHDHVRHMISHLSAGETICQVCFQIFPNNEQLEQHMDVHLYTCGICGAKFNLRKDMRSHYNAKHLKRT
B3: Low-density lipoprotein receptor class A domain-containing protein 1 (Homo sapiens), Q5T700 (parent)
chain: MNKVFPQGENGYTAAESKAHPGGEAGGGHLCCSRRGACLSASLLLLLATVAALIALVTILGLPSCTPGAQACITLTNRTGFLCHDQRSCIPASGVCDGVRTCTHGEDEDESLCRDVPQSLPHFLVAHCGDPASWIYSDQKCDGTNNCGDCSDELSPVTVCPPCGPGWWRCPSTFFKYCDCIPRHLCRDHVQHCSDWSDEYACPGP
partner: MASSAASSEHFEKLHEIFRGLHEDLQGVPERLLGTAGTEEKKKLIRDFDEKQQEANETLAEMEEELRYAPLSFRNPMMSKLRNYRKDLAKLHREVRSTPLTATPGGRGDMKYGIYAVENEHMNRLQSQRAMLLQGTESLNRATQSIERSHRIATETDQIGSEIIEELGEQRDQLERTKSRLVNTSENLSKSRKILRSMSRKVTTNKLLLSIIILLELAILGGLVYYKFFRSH
B4: Myosin light polypeptide 6 (Homo sapiens), P60660 (parent)
chain: MCDFTEDQTAEFKEAFQLFDRTGDGKILYSQCGDVMRALGQNPTNAEVLKVLGNPKSDEMNVKVLDFEHFLPMLQTVAKNKDQGTYEDYVEGLRVFDKEGNGTVMGAEIRHVLVTLGEKMTEEEVEMLVAGHEDSNGCINYEAFVRHILSG
B5: Four and a half LIM domains protein 2 (Homo sapiens), Q14192 (parent)
chain: MTERFDCHHCNESLFGKKYILREESPYCVVCFETLFANTCEECGKPIGCDCKDLSYKDRHWHEACFHCSQCRNSLVDKPFAAKEDQLLCTDCYSNEYSSKCQECKKTIMPGTRKMEYKGSSWHETCFICHRCQQPIGTKSFIPKDNQNFCVPCYEKQHAMQCVQCKKPITTGGVTYREQPWHKECFVCTACRKQLSGQRFTARDDFAYCLNCFCDLYAKKCAGCTNPISGLGGTKYISFEERQWHNDCFNCKKCSLSLVGRGFLTERDDILCPDCGKDI
B6: Mediator of RNA polymerase II transcription subunit 18 (Homo sapiens), Q9BUE0 (parent)
chain: MEAPPVTMMPVTGGTINMMEYLLQGSVLDHSLESLIHRLRGLCDNMEPETFLDHEMVFLLKGQQASPFVLRARRSMDRAGAPWHLRYLGQPEMGDKNRHALVRNCVDIATSENLTDFLMEMGFRMDHEFVAKGHLFRKGIMKIMVYKIFRILVPGNTDSTEALSLSYLVELSVVAPAGQDMVSDDMKNFAEQLKPLVHLEKIDPKRLM
partner: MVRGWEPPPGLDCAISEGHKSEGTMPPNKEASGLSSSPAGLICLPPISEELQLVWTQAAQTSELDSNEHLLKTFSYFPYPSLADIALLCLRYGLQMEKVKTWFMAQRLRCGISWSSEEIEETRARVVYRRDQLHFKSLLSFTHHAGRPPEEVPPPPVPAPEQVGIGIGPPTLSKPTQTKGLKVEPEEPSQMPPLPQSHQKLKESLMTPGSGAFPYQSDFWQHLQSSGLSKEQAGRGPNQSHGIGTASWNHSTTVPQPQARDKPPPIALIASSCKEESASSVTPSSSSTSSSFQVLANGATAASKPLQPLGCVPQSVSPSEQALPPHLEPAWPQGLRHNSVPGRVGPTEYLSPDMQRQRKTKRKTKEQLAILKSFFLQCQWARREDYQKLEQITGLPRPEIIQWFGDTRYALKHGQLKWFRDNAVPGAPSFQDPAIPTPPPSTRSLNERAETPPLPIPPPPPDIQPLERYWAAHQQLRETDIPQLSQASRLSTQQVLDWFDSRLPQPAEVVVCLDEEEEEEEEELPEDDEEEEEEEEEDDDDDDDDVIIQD
B7: Microtubule-associated tumor suppressor candidate 2 (Homo sapiens), Q5JR59-3 (parent)
chain: MGHCCCKPYNCLQCLDKTNESALVKEKELSIELANIRDEVAFHTAKCEKLQKEKEELERRFEDEVKRLGWQQQAELQELEERLQLQFEAEMARLQEEHGDQLLSIRCQHQEQVEDLTASHDAALLEMENNHTVAITILQDDHDHKVQELMSTHELEKKELEENFEKLRLSLQDQVDTLTFQSQSLRDRARRFEEALRKNTEEQLEIALAPYQHLEEDMKSLKQVLEMKNQQIHEQEKKILELEKLAEKNIILEEKIQVLQQQNEDLKARIDQNTVVTRQLSEENANLQEYVEKETQEKKRLSRTNEELLWKLQTGDPTSPIKLSPTSPVYRGSSSGPSSPARVSTTPR
partner: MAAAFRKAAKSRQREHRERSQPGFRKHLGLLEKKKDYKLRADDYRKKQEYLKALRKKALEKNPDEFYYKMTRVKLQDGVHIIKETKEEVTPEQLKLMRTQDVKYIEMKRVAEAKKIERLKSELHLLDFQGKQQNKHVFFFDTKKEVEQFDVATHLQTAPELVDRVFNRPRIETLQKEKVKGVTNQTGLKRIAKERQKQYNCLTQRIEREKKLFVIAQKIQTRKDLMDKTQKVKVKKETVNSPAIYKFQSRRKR
B8: MIF4G domain-containing protein (Homo sapiens), A9UHW6 (parent)
chain: MGEPSREEYKIQSFDAETQQLLKTALKDPGAVDLEKVANVIVDHSLQDCVFSKEAGRMCYAIIQAESKQAGQSVFRRGLLNRLQQEYQAREQLRARSLQGWVCYVTFICNIFDYLRVNNMPMMALVNPVYDCLFRLAQPDSLSKEEEVDCLVLQLHRVGEQLEKMNGQRMDELFVLIRDGFLLPTGLSSLAQLLLLEIIEFRAAGWKTTPAAHKYYYSEVSD
B9: Inositol monophosphatase 1 (Homo sapiens), P29218-1 (parent)
chain: MADPWQECMDYAVTLARQAGEVVCEAIKNEMNVMLKSSPVDLVTATDQKVEKMLISSIKEKYPSHSFIGEESVAAGEKSILTDNPTWIIDPIDGTTNFVHRFPFVAVSIGFAVNKKIEFGVVYSCVEGKMYTARKGKGAFCNGQKLQVSQQEDITKSLLVTELGSSRTPETVRMVLSNMEKLFCIPVHGIRSVGTAAVNMCLVATGGADAYYEMGIHCWDVAGAGIIVTEAGGVLMDVTGGPFDLMSRRVIAANNRILAERIAKEIQVIPLQRDDED
partner: B9 chain
B10: Protein mab-21-like 3 (Homo sapiens), Q8N8X9 (parent)
chain: MKYLTVGDLEDCLLNKVDLRRQQISQAVEEVQKVVHHLTTNISNQDIRFQAVPYSDTYNENIKVLAPSQFLVTVPIKGLAGYREAREQHWRYYTLQGTRLPCPLRDPEGLQQWLEVEQFMKSLWQWHETDVNIDGDIVPAKVLLVFRKLVENAVRTCHLSGKVSLLGNRSAVWVAVETSAYQVELELVPAVEIPTTWSKKARWPRCLQRWPSQERVECIKSFGFNLLACSNYHWQLSFLRAEQVLLEQLDEDGGCRRKCFQVMRHLKEDIWCPGNRPVITSHHLQTVLFWTCEKYPHFKDWQVFSKAFLRLVRKLHKCVSQHFLKHYFVRNSNLFQCTNPTELDTVAQKLATFLKNPQIGPP
partner: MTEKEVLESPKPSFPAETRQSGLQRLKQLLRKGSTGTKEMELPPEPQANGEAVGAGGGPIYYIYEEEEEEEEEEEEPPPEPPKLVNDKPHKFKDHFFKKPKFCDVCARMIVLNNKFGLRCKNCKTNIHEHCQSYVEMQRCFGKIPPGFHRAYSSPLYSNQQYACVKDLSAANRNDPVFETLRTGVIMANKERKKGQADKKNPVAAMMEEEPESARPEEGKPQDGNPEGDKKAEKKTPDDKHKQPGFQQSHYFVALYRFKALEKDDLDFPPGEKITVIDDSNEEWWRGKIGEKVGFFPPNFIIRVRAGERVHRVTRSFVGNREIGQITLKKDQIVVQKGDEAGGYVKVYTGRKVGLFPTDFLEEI
B11: Homeobox protein VENTX (Homo sapiens), O95231 (parent)
chain: MRLSSSPPRGPQQLSSFGSVDWLSQSSCSGPTHTPRPADFSLGSLPGPGQTSGAREPPQAVSIKEAAGSSNLPAPERTMAGLSKEPNTLRAPRVRTAFTMEQVRTLEGVFQHHQYLSPLERKRLAREMQLSEVQIKTWFQNRRMKHKRQMQDPQLHSPFSGSLHAPPAFYSTSSGLANGLQLLCPWAPLSGPQALMLPPGSFWGLCQVAQEALASAGASCCGQPLASHPPTPGRPSLGPALSTGPRGLCAMPQTGDAF
partner: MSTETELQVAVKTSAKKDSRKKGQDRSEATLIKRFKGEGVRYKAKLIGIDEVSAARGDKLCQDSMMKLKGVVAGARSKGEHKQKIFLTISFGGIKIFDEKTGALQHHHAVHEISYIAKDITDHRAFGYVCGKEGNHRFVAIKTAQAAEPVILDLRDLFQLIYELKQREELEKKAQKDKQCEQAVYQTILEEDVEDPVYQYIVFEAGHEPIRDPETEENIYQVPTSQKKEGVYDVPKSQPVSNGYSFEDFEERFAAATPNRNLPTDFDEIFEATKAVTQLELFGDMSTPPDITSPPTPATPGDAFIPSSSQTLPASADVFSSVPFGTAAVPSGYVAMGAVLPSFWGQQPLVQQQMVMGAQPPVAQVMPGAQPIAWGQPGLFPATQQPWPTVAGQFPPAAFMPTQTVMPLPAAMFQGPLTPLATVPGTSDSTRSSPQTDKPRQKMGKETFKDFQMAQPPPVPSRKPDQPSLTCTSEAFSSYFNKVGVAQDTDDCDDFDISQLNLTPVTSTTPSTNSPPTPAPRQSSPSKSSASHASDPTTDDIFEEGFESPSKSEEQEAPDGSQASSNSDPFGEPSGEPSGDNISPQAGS

Variants of: B1
Settings: with ctbp2_human CTBP2, P56545

Variant | effect of a mutation on the interaction
T44M | with no effect

Variants of: B2
Settings: with zbtb1_human ZBTB1, Q9Y2K1

Variant | effect of a mutation on the interaction
A142T | disrupting interaction strength

Variants of: B3
Settings: with vti1b_human VTI1B

Variant | effect of a mutation on the interaction
E108K | with no effect

Variants of: B4
Settings: with ats12_human ADAMTS12, P58397
Chain of ats12_human ADAMTS12, P58397 (P58397 whole entry): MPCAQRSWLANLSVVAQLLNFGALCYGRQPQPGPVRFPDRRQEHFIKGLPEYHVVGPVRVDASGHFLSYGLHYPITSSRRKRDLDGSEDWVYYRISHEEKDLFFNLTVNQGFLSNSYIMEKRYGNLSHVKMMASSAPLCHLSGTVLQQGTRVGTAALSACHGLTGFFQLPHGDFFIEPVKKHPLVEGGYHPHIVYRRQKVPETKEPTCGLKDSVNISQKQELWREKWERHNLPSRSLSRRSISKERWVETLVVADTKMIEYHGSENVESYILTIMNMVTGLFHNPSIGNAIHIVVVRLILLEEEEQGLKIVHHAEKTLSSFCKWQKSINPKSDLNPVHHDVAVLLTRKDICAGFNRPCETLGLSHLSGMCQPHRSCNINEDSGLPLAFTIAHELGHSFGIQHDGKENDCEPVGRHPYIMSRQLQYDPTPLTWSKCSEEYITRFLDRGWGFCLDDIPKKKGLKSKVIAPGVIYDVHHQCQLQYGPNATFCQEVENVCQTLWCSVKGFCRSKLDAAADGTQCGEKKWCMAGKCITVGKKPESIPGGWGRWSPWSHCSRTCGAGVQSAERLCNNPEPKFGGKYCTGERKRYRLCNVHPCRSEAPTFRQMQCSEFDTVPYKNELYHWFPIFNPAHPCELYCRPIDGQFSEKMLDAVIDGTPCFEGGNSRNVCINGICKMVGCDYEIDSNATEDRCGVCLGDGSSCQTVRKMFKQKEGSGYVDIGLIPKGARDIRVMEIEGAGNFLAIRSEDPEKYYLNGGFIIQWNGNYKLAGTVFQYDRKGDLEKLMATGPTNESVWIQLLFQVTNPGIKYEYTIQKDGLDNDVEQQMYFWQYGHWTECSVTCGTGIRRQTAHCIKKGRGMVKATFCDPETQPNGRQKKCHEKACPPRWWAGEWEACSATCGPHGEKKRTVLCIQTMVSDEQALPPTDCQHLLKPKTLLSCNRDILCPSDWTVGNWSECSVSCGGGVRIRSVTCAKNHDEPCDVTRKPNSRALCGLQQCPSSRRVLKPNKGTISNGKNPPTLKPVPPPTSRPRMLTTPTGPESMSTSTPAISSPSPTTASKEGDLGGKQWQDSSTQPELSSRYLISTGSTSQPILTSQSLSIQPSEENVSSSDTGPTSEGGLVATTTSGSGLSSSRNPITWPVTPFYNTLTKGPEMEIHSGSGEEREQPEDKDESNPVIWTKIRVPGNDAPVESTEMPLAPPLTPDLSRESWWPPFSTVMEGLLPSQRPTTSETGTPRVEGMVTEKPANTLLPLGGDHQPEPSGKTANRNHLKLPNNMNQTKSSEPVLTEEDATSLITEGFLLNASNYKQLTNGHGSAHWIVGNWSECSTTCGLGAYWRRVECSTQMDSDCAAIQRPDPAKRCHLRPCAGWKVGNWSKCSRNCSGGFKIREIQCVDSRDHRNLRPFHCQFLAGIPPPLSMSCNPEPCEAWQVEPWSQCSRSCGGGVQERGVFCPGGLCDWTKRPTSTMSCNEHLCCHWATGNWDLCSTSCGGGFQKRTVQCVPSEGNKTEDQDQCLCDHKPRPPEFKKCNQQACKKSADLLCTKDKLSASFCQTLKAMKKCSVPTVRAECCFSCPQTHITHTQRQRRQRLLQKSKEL

Variant | effect of a mutation on the interaction
C138S | disrupting interaction strength

Variants of: B4
Settings: with cpsf5_human NUDT21, O43809
Chain of cpsf5_human NUDT21, O43809 (O43809 whole entry): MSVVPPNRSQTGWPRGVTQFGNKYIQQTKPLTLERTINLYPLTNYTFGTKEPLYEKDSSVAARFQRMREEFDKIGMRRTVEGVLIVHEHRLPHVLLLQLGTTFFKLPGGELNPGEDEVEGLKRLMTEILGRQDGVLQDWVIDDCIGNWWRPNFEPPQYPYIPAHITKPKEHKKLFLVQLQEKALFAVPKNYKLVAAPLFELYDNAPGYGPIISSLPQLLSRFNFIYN

Variant | effect of a mutation on the interaction
C138S | disrupting interaction strength

Variants of: B5
Settings: with inca1_human INCA1, Q0VD86
Chain of inca1_human INCA1, Q0VD86 (Q0VD86 whole entry): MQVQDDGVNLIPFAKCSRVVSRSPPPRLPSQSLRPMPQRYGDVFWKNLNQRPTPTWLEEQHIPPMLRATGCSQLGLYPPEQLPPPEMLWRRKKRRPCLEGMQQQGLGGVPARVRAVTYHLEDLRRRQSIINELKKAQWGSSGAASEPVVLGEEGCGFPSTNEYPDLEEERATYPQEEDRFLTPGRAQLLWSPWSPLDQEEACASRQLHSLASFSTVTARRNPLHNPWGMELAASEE

Variant | effect of a mutation on the interaction
N95K | with no effect

Variants of: B6
Settings: with homez_human HOMEZ

Variant | effect of a mutation on the interaction
M19V | with no effect

Variants of: B7
Settings: with utp11_human UTP11, Q9Y3A2

Variant | effect of a mutation on the interaction
A89V | with no effect

Variants of: B8
Settings: with hgs_human HGS

Variant | effect of a mutation on the interaction
E160K | with no effect

Variants of: B9
Settings: with impa1_human IMPA1, P29218

Variant | effect of a mutation on the interaction
G164S | with no effect

Variants of: B10
Settings: with stac3_human STAC3, Q96MF2

Variant | effect of a mutation on the interaction
T338A | with no effect

Variants of: B11
Settings: with dab1_human DAB1, O75553

Variant | effect of a mutation on the interaction
A226E | disrupting interaction strength
M251V | with no effect
